The values that follow come from PMC9784774, “Neutralization Epitopes in Trimer and Pentamer Complexes Recognized by Potent Cytomegalovirus-Neutralizing Human Monoclonal Antibodies” (Microbiology Spectrum, 2022).

Details in all cases: both partners purified
Assay [1] has as its target T1, recombinant gH/gL/UL128/UL130/UL131A pentamer (wild type) (Human cytomegalovirus VR1814 (gH strain …, UniProt Q6SW67;F5HCH8;PDB)).
T1 construct: also called CMV pentamer; HCMV pentamer complex; source: HEK293F, cotransfected with gH, gL, UL128, UL130 and UL131A plasmids, purified (Ni-NTA, SEC); not shown: His6, C-terminal, kept; copies: + + + +
Briefly: SPR; Biacore X100, CM5 chip, RT, 1:1 binding model; methods: antibody (4 μg/mL) captured by anti-human Fc IgG to about 100 RU, pentamer or trimer in five 2-fold dilutions injected at 30 μL/min, 90 s association, 600 s dissociation (the legend of Fig. 5 tells the reverse orientation). On the technique in general: Surface plasmon resonance follows binding to a sensor surface in real time, without labels.
T1 sequence (F5HCH8 whole entry, looked up, chain 1 of 2): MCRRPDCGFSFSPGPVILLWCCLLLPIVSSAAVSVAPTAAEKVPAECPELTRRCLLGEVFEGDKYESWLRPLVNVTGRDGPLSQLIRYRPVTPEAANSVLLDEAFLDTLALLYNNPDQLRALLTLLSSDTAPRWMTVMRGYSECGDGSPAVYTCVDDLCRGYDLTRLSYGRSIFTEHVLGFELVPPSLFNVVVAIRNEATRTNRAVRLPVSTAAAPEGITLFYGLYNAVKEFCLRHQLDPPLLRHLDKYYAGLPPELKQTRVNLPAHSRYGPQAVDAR
T1 sequence (Q6SW67 whole entry, looked up, chain 2 of 2): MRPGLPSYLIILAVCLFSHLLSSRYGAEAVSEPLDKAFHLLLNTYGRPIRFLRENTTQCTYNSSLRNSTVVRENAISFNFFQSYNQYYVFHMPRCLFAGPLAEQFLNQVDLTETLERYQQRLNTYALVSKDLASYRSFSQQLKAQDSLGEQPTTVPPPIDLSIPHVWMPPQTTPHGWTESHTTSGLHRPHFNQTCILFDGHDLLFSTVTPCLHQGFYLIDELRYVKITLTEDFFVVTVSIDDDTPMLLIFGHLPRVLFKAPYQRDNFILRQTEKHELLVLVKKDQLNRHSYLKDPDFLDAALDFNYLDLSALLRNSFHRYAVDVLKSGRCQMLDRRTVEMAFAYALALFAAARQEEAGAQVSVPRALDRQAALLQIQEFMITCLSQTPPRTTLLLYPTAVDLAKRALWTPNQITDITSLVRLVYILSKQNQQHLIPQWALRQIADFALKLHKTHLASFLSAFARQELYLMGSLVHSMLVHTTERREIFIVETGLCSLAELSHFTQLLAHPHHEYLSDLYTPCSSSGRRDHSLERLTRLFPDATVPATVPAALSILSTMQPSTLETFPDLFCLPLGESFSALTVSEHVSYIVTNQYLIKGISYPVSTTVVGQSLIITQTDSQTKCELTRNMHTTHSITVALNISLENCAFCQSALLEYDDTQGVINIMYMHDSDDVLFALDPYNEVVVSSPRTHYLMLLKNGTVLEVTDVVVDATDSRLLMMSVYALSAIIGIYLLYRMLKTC

Assay [2] deals with T1, recombinant gH/gL/UL128/UL130/UL131A …. The assay is described as above. The source holds these as a separate data set.
Assay [3] has as its target T2, recombinant gH/gL/UL128/UL130/UL131A pentamer (wild type) (Human cytomegalovirus VR1814 (gH strain …, UniProt Q6SW67;F5HCH8;PDB)).
T2 construct: also called CMV pentamer; HCMV pentamer complex; source: HEK293F, cotransfected with gH, gL, UL128, UL130 and UL131A plasmids, purified (Ni-NTA, SEC); not shown: His6, C-terminal, kept; copies: + + + +
The experiment in a line: ELISA; pentamer, trimer or pentamer mutant coated at 100 ng/well (carbonate bicarbonate buffer pH 7.4, overnight 4°C); purified antibodies in eight serial 3-fold dilutions from 1 μg/mL, 37°C 1 h; detected with goat anti-human IgG (H+L)-HRP.
T2 sequence (F5HCH8 whole entry, looked up, chain 1 of 2): as the sequence (F5HCH8 whole entry, looked up, chain 1 of 2) above
T2 sequence (Q6SW67 whole entry, looked up, chain 2 of 2): as the sequence (Q6SW67 whole entry, looked up, chain 2 of 2) above

The target of assay [4] is T2, recombinant gH/gL/UL128/UL130/UL131A …. The experiment in a line: SPR; Biacore X100, CM5 chip, RT, 1:1 binding model; methods: antibody (4 μg/mL) captured by anti-human Fc IgG to about 100 RU, pentamer or trimer in five 2-fold dilutions injected at 30 μL/min, 90 s association, 600 s dissociation (the legend of Fig. 5 tells the reverse orientation). The source holds these as a separate data set.

B1: MAb 9I6 (antibody, V domains shown)
VH: EVQLVQSGAEVKKPGESLKISCRESGDTFPAYWIAWVRQMPGKGLEWMGIIYPIDSETTYSPSFQGQVTISADKSINTAYLQWSSLKASDSAIYYCARGTSTGLREAFHIWGQGTMVTVSS
VL: DVVMTQSPLSLAVTLGQPAYISCRSSQSLGYSDGNTYLNWFQQRPGQSPRRLIYEVSNRDSGVPDRFSGSGSGTDFTLKISRVEAEDVGTYYCMQGTHWPPMCSFGQGTKLEIK
notes: source: 293F cells, transient transfection, purified (protein A)
A word on the Kd: it is the equilibrium constant for the complex coming apart. One may read the koff as a measure of how fast the partners let go of each other. One may read the kon as the rate constant with which the complex forms. Take B1: the Kd in assay [1] was determined as 0.484 nM. In assay [2], the Kd is 0.82 nM, the koff was found to be 0.000139 s⁻¹ and the kon was determined as 168000 M⁻¹ s⁻¹.

B2: MAb 8I21 (antibody, V domains shown)
VH: LVELVESGGGVVQPGRSLRLSCAASGFTFSSDGMHWVRQSPGRGLEWVAFISSDGSTPYYADSVKGRFTISRDNSKNTLYLQMNSLRAEDTAMYFCAKDWALFRWLRTFDHWGQGTLVTVSS
VL: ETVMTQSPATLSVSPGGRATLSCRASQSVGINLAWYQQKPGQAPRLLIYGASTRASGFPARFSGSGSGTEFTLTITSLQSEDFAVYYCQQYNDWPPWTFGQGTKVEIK
notes: as for B1
Regarding B2, in assay [3], the binding result is “binds”.

B3: MAb MSL-109 (antibody, V domains shown)
VH: EEQVLESGGGLVKPGGSLRLSCAASGFTFSPYSVFWVRQAPGKGLEWVSSINSDSTYKYYADSVKGRFTISRDNAENSIFLQMNSLRAEDTAVYYCARDRSYYAFSSGSLSDYYYGLDVWGQGTLVTVSS
VL: DIVMTQSPLSLSVTPGEPASISCRSSQSLLHTNGYNYLDWYVQKPGQSPQLLIYLASNRASGVPDRFSGSGSGTDFTLKISRVETEDVGVYYCMQALQIPRTFGQGTKVEIK
notes: as for B1
Turning to B3, in assay [4], the Kd turned out to be 1.33 nM, the koff came out at 0.00156 s⁻¹ and the kon worked out at 1.17e+06 M⁻¹ s⁻¹.
